What all share (assay): fluorescence anisotropy
Background: In fluorescence polarisation assays a small probe gives low polarisation when free and higher when bound to something large.

Series [1] addresses T1, MntR wild-type (Bacillus subtilis, UniProt P54512 1-142).
T1 sequence: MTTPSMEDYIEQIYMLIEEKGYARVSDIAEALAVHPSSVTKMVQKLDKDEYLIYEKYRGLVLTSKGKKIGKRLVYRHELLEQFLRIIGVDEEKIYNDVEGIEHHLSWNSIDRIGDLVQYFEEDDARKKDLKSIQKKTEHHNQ

Series [2] deals with T2, MntR E11K (Bacillus subtilis, UniProt P54512 1-142, E11K).
T2 sequence: T1 sequence with E11K

In series [3] the target is T1, MntR wild-type. This is another data set of the same source.
The target in series [4] is T2, MntR E11K. This is another data set of the same source.

The results in this text go back to paper PMC3562352.

Substitutions are numbered along the chain they refer to. Where two headings read alike, the source gives them in different places.

B1: mntH operator 21 bp (dsDNA)
DNA 1: GAGTTTCCTTAAGGCAAATTG
DNA 2: CAATTTGCCTTAAGGAAACTC
In the case of B1, the Kd (in general, the constant that tells how readily two partners part at equilibrium) was 6.5 ± 0.5 nM with MntR wild-type [1], 2.4 ± 0.1 nM with MntR E11K [2], 5.6 ± 0.8 nM with MntR wild-type [3] and 6.5 ± 1.3 nM in the series with MntR E11K [4].
